Sequences and labels used below:
B1: library; a variant is named by its letters at X, in order (parent)
chain: MNIQIGELAKRTACPVVTIRFYEQEGLLPPPGRSRGNFRLYGEEHVERLQFIRHCRSLDMPLSXVRTLLSYRKRPDQDCGEVXMLLDEHXRQVESRIGALLELXHXLVELREACSGARPAQSCGILQGLSDCVCDTRGTTAHXSD
B2: library; numbered along this chain (parent)
chain: B1 chain with X64D, X83N, X90I, X104K, X106H, X143P

Data set [1] covers variants of B1. The data set is described as follows: sfGFP reporter fluorescence (15 h) (µM FITC); higher = higher leak. To be noted: library round: Round 3b; ligand: none. The method, then: (§1)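 Cell-free biosensing: 1 µL Echo-assembled CFE reactions with linear PbrR variant templates (5 nM) and pPbrR-sfGFP reporter, with 1 µM Pb, 30 µM Zn or no ligand; endpoint sfGFP fluorescence after 15 h at 30 °C calibrated as µM FITC. Round 3b rational combinatorial PbrR mutants; 3 biological replicates.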

Variants of B1 are the subject of data set [2]. The data set is described as follows: sfGFP reporter fluorescence (15 h) (µM FITC); higher = stronger transcriptional activation. The note with it: library round: Round 3b. The method, then:
as §1

Variants of B2 are the subject of data set [3]. The data set is described as follows: sfGFP reporter fluorescence (15 h) (µM FITC); higher = higher leak. To be noted: library round: Round 0; ligand: none. The method in brief:
(§2)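 PCR-made linear PbrR templates (Echo-normalized to 5 nM) were expressed in BL21 Star (DE3) extract (PANOx-SP) with pPbrR-sfGFP reporter plasmid and 30 μg/mL GamS. Reactions were 1 μL, Echo-assembled, with 1 µM lead chloride, 30 µM zinc acetate or no metal, incubated 15 hr at 30 °C. Endpoint sfGFP fluorescence (485/528 nm, Synergy Neo2) was converted to µM FITC via standard curves in 50 mM sodium borate pH 8.5. Up to three biological replicates.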

In data set [4] the parent is B2. The data set is described as follows: sfGFP reporter fluorescence (15 h) (µM FITC); higher = stronger transcriptional activation. To be noted: library round: Round 0. The method in brief: as §2

From the supplement of paper PMC12783771 come the findings set out here.

Positions count from the first letter of the chain named. ± gives the standard deviation of the averaged measurements.

Turning to KFATER, the sfGFP reporter fluorescence turned out to be 0.0457 ± 0.0041 in data set [1], 0.594 ± 0.024 in data set [2] (ligand: 1 µM Pb) and 0.0571 ± 0.014 in data set [2] (ligand: 30 µM Zn).
For KFATHP the same measures were 0.0523 ± 0.0059, 0.476 ± 0.041 and 0.112 ± 0.011.
Taken in the same sequence, the figures for KFATHT were 0.0512 ± 0.0033, 0.558 ± 0.011 and 0.137 ± 0.013.
Take KFATHR: the figures for the sfGFP reporter fluorescence in data set [1], in data set [2] (ligand: 1 µM Pb) and in data set [2] (ligand: 30 µM Zn) were 0.0517 ± 0.0024, 0.705 ± 0.055 and 0.171 ± 0.012, respectively.
Taken in the same sequence, the figures for DFATEP were 0.041 ± 0.0024, 0.0428 ± 0.0007 and 0.0444 ± 0.0036.
Taken in the same sequence, the figures for DFATER were 0.044 ± 0.0013, 0.0474 ± 0.0018 and 0.0469 ± 0.0034.
Taken in the same sequence, the figures for DFATET were 0.0435 ± 0.0019, 0.0466 ± 0.0012 and 0.0451 ± 0.001.
For KFAVEP, the sfGFP reporter fluorescence is 0.0452 ± 0.0037 in data set [1], 0.533 ± 0.03 in data set [2] (ligand: 1 µM Pb) and 0.0557 ± 0.0048 in data set [2] (ligand: 30 µM Zn).
With KFAVET, the sfGFP reporter fluorescence was found to be 0.0489 ± 0.0017 in data set [1], 0.41 ± 0.071 in data set [2] (ligand: 1 µM Pb) and 0.0549 ± 0.0017 in data set [2] (ligand: 30 µM Zn).
Taken in the same sequence, the figures for KFAVER were 0.0512 ± 0.0022, 0.51 ± 0.029 and 0.056 ± 0.0049.
Taken in the same sequence, the figures for KFITET were 0.0451 ± 0.0028, 0.3727 ± 0.0019 and 0.0737 ± 0.0037.
Taken in the same sequence, the figures for KFITEP were 0.0482 ± 0.0055, 0.36 ± 0.014 and 0.0694 ± 0.0043.
As to KFITER, the sfGFP reporter fluorescence was determined as 0.0486 ± 0.00051 in data set [1], 0.435 ± 0.016 in data set [2] (ligand: 1 µM Pb) and 0.0763 ± 0.005 in data set [2] (ligand: 30 µM Zn).
For DFIVAT the same measures were 0.0456 ± 0.0052, 0.0992 ± 0.004 and 0.0496 ± 0.0011.
For KFAVAR the same measures were 0.0482 ± 0.0037, 0.398 ± 0.028 and 0.0563 ± 0.00097.
Taken in the same sequence, the figures for KFAVAT were 0.0465 ± 0.0014, 0.356 ± 0.02 and 0.057 ± 0.0017.
Regarding KFAKET, the sfGFP reporter fluorescence was found to be 0.0549 ± 0.0049 in data set [1], 0.413 ± 0.019 in data set [2] (ligand: 1 µM Pb) and 0.0675 ± 0.0044 in data set [2] (ligand: 30 µM Zn).
Taken in the same sequence, the figures for KFAKER were 0.0536 ± 0.0034, 0.438 ± 0.026 and 0.0631 ± 0.0086.
For KFAKEP the same measures were 0.0525 ± 0.0023, 0.414 ± 0.015 and 0.0724 ± 0.0068.
As to KFITHT, the sfGFP reporter fluorescence in data set [1] was 0.0512 ± 0.0076; in data set [2] (ligand: 1 µM Pb) it was 0.492 ± 0.046; in data set [2] (ligand: 30 µM Zn) it was 0.21 ± 0.024.
Taken in the same sequence, the figures for KFITHR were 0.0496 ± 0.0019, 0.554 ± 0.021 and 0.25 ± 0.036.
Turning to KFITAR, the sfGFP reporter fluorescence in data set [1] was determined as 0.0479 ± 0.003; in data set [2] (ligand: 1 µM Pb), 0.394 ± 0.028; in data set [2] (ligand: 30 µM Zn), 0.0776 ± 0.0024.
For KFITAP the same measures were 0.0485 ± 0.0052, 0.302 ± 0.022 and 0.0642 ± 0.0032.
For KFITAT, the sfGFP reporter fluorescence in data set [1] stood at 0.0473 ± 0.0032; in data set [2] (ligand: 1 µM Pb), 0.335 ± 0.012; in data set [2] (ligand: 30 µM Zn), 0.0678 ± 0.0076.
As to I52A, the sfGFP reporter fluorescence in data set [3] amounted to 0.06341 ± 0.00052; in data set [4] (ligand: 1 µM Pb), 0.0596 ± 0.0023; in data set [4] (ligand: 30 µM Zn), 0.077 ± 0.0015.
For C123D the same measures were 0.0577 ± 0.0039, 0.0586 and 0.0564 ± 0.0031.
Taken in the same sequence, the figures for G128V were 0.0647 ± 0.00078, 0.131 ± 0.011 and 1.54 ± 0.16.
In the case of G128F, the sfGFP reporter fluorescence in data set [3] is 0.0671 ± 0.0047; in data set [4] (ligand: 1 µM Pb), 0.199 ± 0.023; in data set [4] (ligand: 30 µM Zn), 1.2 ± 0.12.
For G128P the same measures were 0.05498 ± 0.00052, 0.0568 ± 0.001 and 0.0535 ± 0.001.
Taken in the same sequence, the figures for C134R were 0.0731 ± 0.0023, 0.0993 ± 0.0042 and 1.66 ± 0.018.
Taken in the same sequence, the figures for L28Y were 0.0621 ± 0.00078, 0.0627 ± 0.0015 and 0.12 ± 0.0052.
For G6W, the sfGFP reporter fluorescence stood at 0.061 ± 0.0023 in data set [3], 0.06011 ± 0.00052 in data set [4] (ligand: 1 µM Pb) and 0.06212 ± 0.00026 in data set [4] (ligand: 30 µM Zn).
For Q24A the same measures were 0.0559 ± 0.0029, 0.05827 ± 0.00052 and 0.534 ± 0.052.
For R39C the same measures were 0.0599 ± 0.0013, 0.061 ± 0.00078 and 0.057 ± 0.0029.
For R39Q the same measures were 0.0612 ± 0.001, 0.0599 ± 0.0018 and 0.0583 ± 0.001.
On to R39K, for which the sfGFP reporter fluorescence in data set [3] was 0.0612 ± 0.0015; in data set [4] (ligand: 1 µM Pb), 0.0623 ± 0.0036; in data set [4] (ligand: 30 µM Zn), 0.14 ± 0.022.
For the variant P119A, the sfGFP reporter fluorescence in data set [3] is 0.05992 ± 0.00026; in data set [4] (ligand: 1 µM Pb), 0.0629 ± 0.0029; in data set [4] (ligand: 30 µM Zn), 0.477 ± 0.05.
With L69A, the sfGFP reporter fluorescence in data set [3] came out at 0.0629 ± 0.0018; in data set [4] (ligand: 1 µM Pb), 0.0627 ± 0.0021; in data set [4] (ligand: 30 µM Zn) it was 0.2252 ± 0.0013.
For G36A the same measures were 0.0665 ± 0.00078, 0.108 ± 0.0067 and 1.91 ± 0.2.
Taken in the same sequence, the figures for G36Y were 0.0605 ± 0.0026, 0.0691 ± 0.0023 and 0.275 ± 0.031.
For G36M the same measures were 0.0612, 0.0667 ± 0.0031 and 0.236 ± 0.028.
In the case of M60L K104V L107C G128M, the sfGFP reporter fluorescence stood at 2.296 ± 0.0044 in data set [3], 4.53 ± 0.18 in data set [4] (ligand: 1 µM Pb) and 3.641 ± 0.033 in data set [4] (ligand: 30 µM Zn).
Taken in the same sequence, the figures for L58M were 0.0583, 0.0581 ± 0.00078 and 0.0748 ± 0.0015.
For L58I the same measures were 0.05443 ± 0.00026, 0.0546 ± 0.001 and 0.05864 ± 0.00052.
